Results reported in the supplement of paper PMC5998384.

Experiments:
[1] = tested on: HeLa Kyoto; assay: thermal stability score vs G1/S (z-score of summed log2 fold changes over temperatures); higher = more thermally stable than in G1/S
[2] = tested on: HeLa Kyoto; assay: solubility in G1/S (NP-40 vs SDS abundance) (log2 ratio); higher = more soluble; details: cell cycle stage: G1/S
[3] = tested on: HeLa Kyoto; assay: melting temperature (median over replicates), in situ; higher = more thermally stable
[4] = tested on: HeLa Kyoto; assay: solubility change mitosis vs G1/S (difference of NP-40 vs SDS log2 ratios) (log2 ratio difference); higher = more soluble in mitosis
[5] = cell cycle stage: early G1 (4.5 h after nocodazole release)
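Wherever melting temperature (median over replicates), in situ is given: HeLa Kyoto cells synchronized by double thymidine or nocodazole block, proteins quantified by TMT10plex mass spectrometry, three independent biological replicates.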
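Wherever solubility change mitosis vs G1/S (difference of NP-40 vs SDS log2 ratios) is given: synchronized HeLa Kyoto cells (double thymidine block for G1/S, nocodazole release for mitosis), protein amounts in NP-40 versus SDS lysates quantified by mass spectrometry, three biological replicates.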
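Wherever solubility in G1/S (NP-40 vs SDS abundance) is given: HeLa Kyoto cells arrested at G1/S by double thymidine block, proteins quantified by TMT10plex mass spectrometry in mild NP-40 versus SDS extracts, three biological replicates.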
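Wherever thermal stability score vs G1/S (z-score of summed log2 fold changes over temperatures) is given: synchronized HeLa Kyoto cells, proteins quantified by TMT10plex mass spectrometry, three biological replicates, mitosis taken 0.5 h after nocodazole release, G1/S directly after double thymidine block.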

Sequence: MAAEKQVPGGGGGGGSGGGGGSGGGGSGGGRGAGGEENKENERPSAGSKANKEFGDSLSLEILQIIKESQQQHGLRHGDFQRYRGYCSRRQRRLRKTLNFKMGNRHKFTGKKVTEELLTDNRYLLLVLMDAERAWSYAMQLKQEANTEPRKRFHLLSRLRKAVKHAEELERLCESNRVDAKTKLEAQAYTAYLSGMLRFEHQEWKAAIEAFNKCKTIYEKLASAFTEEQAVLYNQRVEEISPNIRYCAYNIGDQSAINELMQMRLRSGGTEGLLAEKLEALITQTRAKQAATMSEVEWRGRTVPVKIDKVRIFLLGLADNEAAIVQAESEETKERLFESMLSECRDAIQVVREELKPDQKQRDYILEGEPGKVSNLQYLHSYLTYIKLSTAIKRNENMAKGLQRALLQQQPEDDSKRSPRPQDLIRLYDIILQNLVELLQLPGLEEDKAFQKEIGLKTLVFKAYRCFFIAQSYVLVKKWSEALVLYDRVLKYANEVNSDAGAFKNSLKDLPDVQELITQVRSEKCSLQAAAILDANDAHQTETSSSQVKDNKPLVERFETFCLDPSLVTKQANLVHFPPGFQPIPCKPLFFDLALNHVAFPPLEDKLEQKTKSGLTGYIKGIFGFRS [SRP68]
- thermal stability score [1, 5]: -0.295
- thermal stability score ([1]; cell cycle stage: mitosis): -0.156
- solubility in G1/S (log2) [2]: -0.033
- melting temperature ([3]; cell cycle stage: G1/S): 50.7 °C
- melting temperature ([3]; cell cycle stage: mitosis): 49.4 °C
- solubility change mitosis (log2) [4]: 0.209

Sequence: MKLIILEHYSQASEWAAKYIRNRIIQFNPGPEKYFTLGLPTGSTPLGCYKKLIEYYKNGDLSFKYVKTFNMDEYVGLPRDHPESYHSFMWNNFFKHIDIHPENTHILDGNAVDLQAECDAFEEKIKAAGGIELFVGGIGPDGHIAFNEPGSSLVSRTRVKTLAMDTILANARFFDGELTKVPTMALTVGVGTVMDAREVMILITGAHKAFALYKAIEEGVNHMWTVSAFQQHPRTVFVCDEDATLELKVKTVKYFKGLMLVHNKLVDPLYSIKEKETEKSQSSKKPYSD [GNPDA1]
- thermal stability score [1, 5]: -0.841
- thermal stability score ([1]; cell cycle stage: mitosis): -0.7
- solubility in G1/S (log2) [2]: 0.183
- melting temperature ([3]; cell cycle stage: G1/S): 61.5 °C
- melting temperature ([3]; cell cycle stage: mitosis): 62.9 °C
- solubility change mitosis (log2) [4]: -0.206

Sequence: MASPSLERPEKGAGKSEFRNQKPKPENQDESELLTVPDGWKEPAFSKEDNPRGLLEESSFATLFPKYREAYLKECWPLVQKALNEHHVNATLDLIEGSMTVCTTKKTFDPYIIIRARDLIKLLARSVSFEQAVRILQDDVACDIIKIGSLVRNKERFVKRRQRLIGPKGSTLKALELLTNCYIMVQGNTVSAIGPFSGLKEVRKVVLDTMKNIHPIYNIKSLMIKRELAKDSELRSQSWERFLPQFKHKNVNKRKEPKKKTVKKEYTPFPPPQPESQIDKELASGEYFLKANQKKRQKMEAIKAKQAEAISKRQEERNKAFIPPKEKPIVKPKEASTETKIDVASIKEKVKKAKNKKLGALTAEEIALKMEADEKKKKKKK [KRR1]
- thermal stability score [1, 5]: 3.32
- thermal stability score ([1]; cell cycle stage: mitosis): 4.5
- solubility in G1/S (log2) [2]: -1.22
- melting temperature ([3]; cell cycle stage: G1/S): 51.3 °C
- melting temperature ([3]; cell cycle stage: mitosis): 50.1 °C
- solubility change mitosis (log2) [4]: 0.79

Sequence: MAFAETYPAASSLPNGDCGRPRARPGGNRVTVVLGAQWGDEGKGKVVDLLAQDADIVCRCQGGNNAGHTVVVDSVEYDFHLLPSGIINPNVTAFIGNGVVIHLPGLFEEAEKNVQKGKGLEGWEKRLIISDRAHIVFDFHQAADGIQEQQRQEQAGKNLGTTKKGIGPVYSSKAARSGLRMCDLVSDFDGFSERFKVLANQYKSIYPTLEIDIEGELQKLKGYMEKIKPMVRDGVYFLYEALHGPPKKILVEGANAALLDIDFGTYPFVTSSNCTVGGVCTGLGMPPQNVGEVYGVVKAYTTRVGIGAFPTEQDNEIGELLQTRGREFGVTTGRKRRCGWLDLVLLKYAHMINGFTALALTKLDILDMFTEIKVGVAYKLDGEIIPHIPANQEVLNKVEVQYKTLPGWNTDISNARAFKELPVNAQNYVRFIEDELQIPVKWIGVGKSRESMIQLF [ADSS]
- thermal stability score [1, 5]: -2.13
- thermal stability score ([1]; cell cycle stage: mitosis): -2.82
- solubility in G1/S (log2) [2]: 0.288
- melting temperature ([3]; cell cycle stage: G1/S): 57.5 °C
- melting temperature ([3]; cell cycle stage: mitosis): 56.5 °C
- solubility change mitosis (log2) [4]: -0.0978

Sequence: MAAAGRLPSSWALFSPLLAGLALLGVGPVPARALHNVTAELFGAEAWGTLAAFGDLNSDKQTDLFVLRERNDLIVFLADQNAPYFKPKVKVSFKNHSALITSVVPGDYDGDSQMDVLLTYLPKNYAKSELGAVIFWGQNQTLDPNNMTILNRTFQDEPLIMDFNGDLIPDIFGITNESNQPQILLGGNLSWHPALTTTSKMRIPHSHAFIDLTEDFTADLFLTTLNATTSTFQFEIWENLDGNFSVSTILEKPQNMMVVGQSAFADFDGDGHMDHLLPGCEDKNCQKSTIYLVRSGMKQWVPVLQDFSNKGTLWGFVPFVDEQQPTEIPIPITLHIGDYNMDGYPDALVILKNTSGSNQQAFLLENVPCNNASCEEARRMFKVYWELTDLNQIKDAMVATFFDIYEDGILDIVVLSKGYTKNDFAIHTLKNNFEADAYFVKVIVLSGLCSNDCPRKITPFGVNQPGPYIMYTTVDANGYLKNGSAGQLSQSAHLALQLPYNVLGLGRSANFLDHLYVGIPRPSGEKSIRKQEWTAIIPNSQLIVIPYPHNVPRSWSAKLYLTPSNIVLLTAIALIGVCVFILAIIGILHWQEKKADDREKRQEAHRFHFDAM [ITFG1]
- thermal stability score [1, 5]: 0.328
- thermal stability score ([1]; cell cycle stage: mitosis): 0.713
- solubility in G1/S (log2) [2]: 0.327
- melting temperature ([3]; cell cycle stage: G1/S): 55.9 °C
- melting temperature ([3]; cell cycle stage: mitosis): 57.5 °C
- solubility change mitosis (log2) [4]: -0.259

Sequence: MAEAAAAAGGTGLGAGASYGSAADRDRDPDPDRAGRRLRVLSGHLLGRPREALSTNECKARRAASAATAAPTATPAAQESGTIPKKRQEVMKWNGWGYNDSKFIFNKKGQIELTGKRYPLSGMGLPTFKEWIQNTLGVNVEHKTTSKASLNPSDTPPSVVNEDFLHDLKETNISYSQEADDRVFRAHGHCLHEIFLLREGMFERIPDIVLWPTCHDDVVKIVNLACKYNLCIIPIGGGTSVSYGLMCPADETRTIISLDTSQMNRILWVDENNLTAHVEAGITGQELERQLKESGYCTGHEPDSLEFSTVGGWVSTRASGMKKNIYGNIEDLVVHIKMVTPRGIIEKSCQGPRMSTGPDIHHFIMGSEGTLGVITEATIKIRPVPEYQKYGSVAFPNFEQGVACLREIAKQRCAPASIRLMDNKQFQFGHALKPQVSSIFTSFLDGLKKFYITKFKGFDPNQLSVATLLFEGDREKVLQHEKQVYDIAAKFGGLAAGEDNGQRGYLLTYVIAYIRDLALEYYVLGESFETSAPWDRVVDLCRNVKERITRECKEKGVQFAPFSTCRVTQTYDAGACIYFYFAFNYRGISDPLTVFEQTEAAAREEILANGGSLSHHHGVGKLRKQWLKESISDVGFGMLKSVKEYVDPNNIFGNRNLL [AGPS]
- thermal stability score [1, 5]: 0.703
- thermal stability score ([1]; cell cycle stage: mitosis): 1.37
- solubility in G1/S (log2) [2]: -0.0393
- melting temperature ([3]; cell cycle stage: G1/S): 52.8 °C
- melting temperature ([3]; cell cycle stage: mitosis): 52.9 °C
- solubility change mitosis (log2) [4]: -0.139

Sequence: MAAWGRRRLGPGSSGGSARERVSLSATDCYIVHEIYNGENAQDQFEYELEQALEAQYKYIVIEPTRIGDETARWITVGNCLHKTAVLAGTACLFTPLALPLDYSHYISLPAGVLSLACCTLYGISWQFDPCCKYQVEYDAYKLSRLPLHTLTSSTPVVLVRKDDLHRKRLHNTIALAALVYCVKKIYELYAV [TMEM11]
- thermal stability score [1, 5]: -0.391
- thermal stability score ([1]; cell cycle stage: mitosis): -1.34
- solubility in G1/S (log2) [2]: -0.0105
- melting temperature ([3]; cell cycle stage: G1/S): 52.2 °C
- melting temperature ([3]; cell cycle stage: mitosis): 51.4 °C
- solubility change mitosis (log2) [4]: -0.0939

Sequence: MRPFFLLCFALPGLLHAQQACSRGACYPPVGDLLVGRTRFLRASSTCGLTKPETYCTQYGEWQMKCCKCDSRQPHNYYSHRVENVASSSGPMRWWQSQNDVNPVSLQLDLDRRFQLQEVMMEFQGPMPAGMLIERSSDFGKTWRVYQYLAADCTSTFPRVRQGRPQSWQDVRCQSLPQRPNARLNGGKVQLNLMDLVSGIPATQSQKIQEVGEITNLRVNFTRLAPVPQRGYHPPSAYYAVSQLRLQGSCFCHGHADRCAPKPGASAGPSTAVQVHDVCVCQHNTAGPNCERCAPFYNNRPWRPAEGQDAHECQRCDCNGHSETCHFDPAVFAASQGAYGGVCDNCRDHTEGKNCERCQLHYFRNRRPGASIQETCISCECDPDGAVPGAPCDPVTGQCVCKEHVQGERCDLCKPGFTGLTYANPQGCHRCDCNILGSRRDMPCDEESGRCLCLPNVVGPKCDQCAPYHWKLASGQGCEPCACDPHNSLSPQCNQFTGQCPCREGFGGLMCSAAAIRQCPDRTYGDVATGCRACDCDFRGTEGPGCDKASGRCLCRPGLTGPRCDQCQRGYCNRYPVCVACHPCFQTYDADLREQALRFGRLRNATASLWSGPGLEDRGLASRILDAKSKIEQIRAVLSSPAVTEQEVAQVASAILSLRRTLQGLQLDLPLEEETLSLPRDLESLDRSFNGLLTMYQRKREQFEKISSADPSGAFRMLSTAYEQSAQAAQQVSDSSRLLDQLRDSRREAERLVRQAGGGGGTGSPKLVALRLEMSSLPDLTPTFNKLCGNSRQMACTPISCPGELCPQDNGTACGSRCRGVLPRAGGAFLMAGQVAEQLRGFNAQLQRTRQMIRAAEESASQIQSSAQRLETQVSASRSQMEEDVRRTRLLIQQVRDFLTDPDTDAATIQEVSEAVLALWLPTDSATVLQKMNEIQAIAARLPNVDLVLSQTKQDIARARRLQAEAEEARSRAHAVEGQVEDVVGNLRQGTVALQEAQDTMQGTSRSLRLIQDRVAEVQQVLRPAEKLVTSMTKQLGDFWTRMEELRHQARQQGAEAVQAQQLAEGASEQALSAQEGFERIKQKYAELKDRLGQSSMLGEQGARIQSVKTEAEELFGETMEMMDRMKDMELELLRGSQAIMLRSADLTGLEKRVEQIRDHINGRVLYYATCK [LAMB3]
- thermal stability score [1, 5]: -0.552
- thermal stability score ([1]; cell cycle stage: mitosis): 1.4
- solubility in G1/S (log2) [2]: 0.117
- melting temperature ([3]; cell cycle stage: G1/S): 53.8 °C
- melting temperature ([3]; cell cycle stage: mitosis): 53.6 °C
- solubility change mitosis (log2) [4]: -0.12
